This note sets out measurements from US20130216530A1, “Methods for optimizing biological response modifier therapy using therapeutic drug monitoring of immunosuppressants” (Exagen Diagnostics, Inc., priority 2012, published 2013).

Some results are limits rather than exact numbers.

Format in all cases: in vivo, human
Series [1] can be described thus: RBC MTXPG3 levels in RA patients measured by liquid chromatography. The protocol:
(§1) Adult RA patients receiving weekly MTX with infliximab for more than three months were enrolled in a cross sectional study. Blood was collected at trough before the infusion of infliximab. Red blood cell (RBC) MTXPGs were measured using liquid chromatography while circulating levels of infliximab were measured using a cell based assay. ATIs were measured using enzyme immunoassays. Statistical analysis consisted of regression analyses and Wilcoxon tests.
(§2) The study was cross sectional study in adult RA patients at three study sites (Brigham and Women's, Boston, Mass.; The Center for Rheumatology, Albany, N.Y.; and Altoona Center for Clinical Research, Altoona Pa.). All RA patients (according to the 2010 ACR criteria for RA)^8 enrolled had received a stable dose of MTX (for at least 4 months) in combination with infliximab for at least 3 months. Clinical parameters and demographic data were collected at the time of a single study visit. The study was approved by an independent ethic committee and informed consent was collected from all patients. Blood was drawn in EDTA containing tube and one SST tube at the time of the study visit. The blood was drawn just prior to the infliximab infusion (trough) and shipped overnight using refrigerated transportation kits. Disease activity was estimated using the clinical disease activity index (CDAI). […] RBC MTXPG3 were measured using a liquid chromatography developed and validated in our laboratory^9. Quantification limit was 5 nmol/L RBCs. Circulating levels of infliximab in serum were measured by Biomonitor (Copenhagen, DK) using a cell based assay consisting of erythroleukemic K562 cells transfected with a NFKB regulated firefly luciferase reporter-gene construct^10. Antibodies to infliximab (ATIs) were measured using a proprietary enzyme immunoassay technique (Biomonitor, Copenhagen, Denmark). The cutoff for positive ATI was 0.9 U/L. Anti-citrullinated peptide auto-antibodies levels (Anti-MCV) were measured using ELISA (Orgentec Diagnostika, Mainz, Germany). […]

Series [2] in a line: Antibodies to infliximab (ATIs) in RA patients by enzyme immunoassay, cutoff 0.9 U/L. The protocol:
as §1
The study was cross sectional study in adult RA patients at three study sites (Brigham and Women's, Boston, Mass.; The Center for Rheumatology, Albany, N.Y.; and Altoona Center for Clinical Research, Altoona Pa.). All RA patients (according to the 2010 ACR criteria for RA)^8 enrolled had received a stable dose of MTX (for at least 4 months) in combination with infliximab for at least 3 months. Clinical parameters and demographic data were collected at the time of a single study visit. The study was approved by an independent ethic committee and informed consent was collected from all patients. Blood was drawn in EDTA containing tube and one SST tube at the time of the study visit. The blood was drawn just prior to the infliximab infusion (trough) and shipped overnight using refrigerated transportation kits. Disease activity was estimated using the clinical disease activity index (CDAI). Upon receipt of blood specimen, erythrocytes and serum were isolated and stored frozen at −80° C. RBC MTXPG3 were measured using a liquid chromatography developed and validated in our laboratory^9. Quantification limit was 5 nmol/L RBCs. Circulating levels of infliximab in serum were measured by Biomonitor (Copenhagen, DK) using a cell based assay consisting of erythroleukemic K562 cells transfected with a NFKB regulated firefly luciferase reporter-gene construct^10. Antibodies to infliximab (ATIs) were measured using a proprietary enzyme immunoassay technique (Biomonitor, Copenhagen, Denmark). The cutoff for positive ATI was 0.9 U/L. Anti-citrullinated peptide auto-antibodies levels (Anti-MCV) were measured using ELISA (Orgentec Diagnostika, Mainz, Germany). Statistical analysis consists of multivariate logistic/linear regression and Wilcoxon tests as appropriate.

Series [3] in a line: Circulating trough infliximab levels in serum of RA patients on MTX plus infliximab (K562 NFKB-luciferase cell based assay). The protocol:
as §1, §2

On to `CN(Cc1cnc2nc(N)nc(N)c2n1)c1ccc(C(=O)N[C@@H](CCC(=O)N[C@@H](CCC(=O)N[C@@H](CCC(=O)O)C(=O)O)C(=O)O)C(=O)O)cc1` [MTXPG3], for which the “median RBC MTXPG3, patients without ATI” value in series [1] (ATI negative patients) was 30 nmol/L. The “median RBC MTXPG3, patients having ATIs” value in series [1] (ATI positive patients) is recorded as 22 nmol/L. For the same compound, the “median RBC MTXPG3 levels” value in series [1] (all 61 RA patients on weekly MTX, red blood cells) is given as 28 nmol/L.
Consider infliximab, for which, in series [2] (11 of 61 patients, ATI>0.9 U/L), the “patients with ATIs detected” value was found to be 18%. Besides, the “patients testing positive for ATI” value in series [2] (12 patients with RBC MTXPG3 above 50 nmol/L) was “None and none”. Also, in series [2] (RBC MTXPG3 levels above 25 nmol/L, logistic regression, CI95%: 1.1-20.8), the “fold lower likelihood of having ATI (odds ratio)” value stood at 4.7 fold. In series [2] (of 4 patients with MTXPG3<5 nmol/L), the “number of patients with ATI” value worked out at 3. Besides, in series [2] (patients with RBC MTXPG3 below 5 nmol/L (3 out of 4)), the “patients presenting with ATI” value turned out to be 75%. Also, the “median infliximab levels, patients without ATI” value in series [3] (ATI negative patients, trough) amounted to 5.0 µg/mL. In addition, in series [3] (ATI positive patients, trough), the “median infliximab levels, patients with ATIs” value is below 0.5 µg/mL. Moreover, the “median trough infliximab levels” value in series [3] (all 61 RA patients, MTX with infliximab, serum at trough before infusion) came to 3.3 µg/mL.
